Results on five molecules are retold here after patent publication US9938505B2, “Polypeptide composition and culture method for pluripotent stem cell using same” (FUJIFILM Corporation, priority 2013, dated 2018).

In one data set the test system is iPS cells. In words: Evaluation of maintenance of undifferentiated state (colony form, NANOG staining). The data set is classed as cell-based, human. The following applies: FIGS. 4A to 4E; after culture for 1 month. Here is the method:
iPS cells collected in the same manner as in <Cell adhesiveness evaluation 1> were suspended in TeSR2. The iPS cells were seeded into 6-well plate (Tissue culture-treated, Falcon), onto which each of the samples 1, 2, 5, 6, and 7 used in <Cell adhesiveness evaluation 1> was adsorbed in the same manner as in <Cell adhesiveness evaluation 1>, and cultured in a CO2 incubator at 37° C. Except for the day after the seeding, the medium was replaced every day. In the same method as described above, the cells were subcultured every six days. FIGS. 3A to 3E show forms of the iPS cells cultured on each of the samples.
After being cultured for 1 month under the conditions described above, the cells were immobilized using 4% paraformaldehyde and treated with 1% Triton-X/PBS so as to enhance the membrane permeability. After the cells were subjected to a blocking treatment using an IMAGE IT SIGNAL ENHANCER (trade name, Invitrogen), an anti-human NANOG antibody (AF 1997, R&D Systems, Inc.), an ALEXA FLUOR 555 binding rabbit anti-goat IgG antibody (Invitrogen), and DAPI (Dojindo Molecular Technologies, Inc.) were added thereto for labeling, and the cells were imaged using a fluorescence microscope. FIGS. 4A to 4E show the fluorescence microscopic images.
FIGS. 3A and 4A show the iPS cells cultured on RCP-1; FIGS. 3B and 4B show the iPS cells cultured on RCP-11; FIGS. 3C and 4C show the iPS cells cultured on natural human vitronectin; FIGS. 3D and 4D show the iPS cells cultured on rLaminin-5; and FIGS. 3E and 4E show the iPS cells cultured on rLaminin-511. The scale bar in the images indicates […]. In FIGS. 3A to 3E, the images on the left side are full images of the colony, and the images on the right side are magnified images. In FIGS. 4A to 4E, the images on the left side are images of the cells stained with DAPI, and the images on the right side are images of the cells stained with an anti-NANOG antibody. The scale bar in FIGS. 3A to 4E indicates 200 μm.

Data set [1] can be described thus: Aggregation after dialysis (removal of urea). The data set is classed as physicochemical. The following applies: after stepwise dialysis against PBS, 1.5 M NaCl, 0.5 M L-arginine, 1 mM EDTA, pH 7.4. As to the method: For RCP-1 to RCP-10 and RCP-17, each of the purified polypeptide solutions was dialyzed using SLIDE-A-LIZER (trade name, 3.5 K MWCO.). Basically, by using a dialysis buffer (PBS, 1.5 M NaCl, 0.5 M L-arginine, 1 mM EDTA, pH 7.4) as an outer dialysate, urea was removed by stepwise dialysis. The concentration of the end-product of dialysis was calculated from the absorbence at 280 nm by using NANODROP (trade name, Thermo Fisher Scientific Inc.).
Furthermore, the indices of hydrophobicity determined for each of the amino acids were summed up, the obtained value was divided by the number of the amino acids, and the outcome was determined as the GRAVY value (see Kyte J., Doolittle R. F. (1982), J. Mol. Biol, 157: 105-132). The GRAVY value is an index of the hydrophilicity and hydrophobicity of a polypeptide calculated from the degree of hydrophobicity of the amino acids contained in each polypeptide. The greater the GRAVY value, the more the polypeptide is hydrophobic, and the smaller the GRAVY value, the more the polypeptide is hydrophilic. The results are shown in Table 4. • Whether or not aggregation was occurred was evaluated based on the scale of G, A, and B as shown below. The results are summarized in Table 4. • G: The formation of an aggregate was not observed. • A: The formation of particles having a particle size of about 100 nm was observed. • B: The formation of an aggregation of particles having a particle size of equal to or greater than 1 mm was visually observed.

B1: Natural vitronectin: human vitronectin extracted from human blood plasma, BD Biosciences (protein, UniProt P04004 20-478, looked up)
Vitronectin: DQESCKGRCTEGFNVDKKCQCDELCSYYQSCCTDYTAECKPQVTRGDVFTMPEDEYTVYDDGEEKNNATVHEQVGGPSLTSDLQAQSKGNPEQTPVLKPEEEAPAPEVGASKPEGIDSRPETLHPGRPQPPAEEELCSGKPFDAFTDLKNGSLFAFRGQYCYELDEKAVRPGYPKLIRDVWGIEGPIDAAFTRINCQGKTYLFKGSQYWRFEDGVLDPDYPRNISDGFDGIPDNVDAALALPAHSYSGRERVYFFKGKQYWEYQFQHQPSQEECEGSSLSAVFEHFAMMQRDSWEDIFELLFWGRTSAGTRQPQFISRDWHGVPGQVDAAMAGRIYISGMAPRPSLAKKQRFRHRNRKGYRSQRGHSRGRNQNSRRPSRATWLSLFSSEESNLGANNYDDYRMDWLVPATCEPIQSVFFFSGDKYYRVNLRTRRVDTVDPPYPRSIAQYWLGCPAPGHL
Take B1: in the data set on iPS cells, the “NANOG expression / maintenance of undifferentiated state” value was “strongly expressed NANOG in the entirety of the colony”.

B2: RCP-8: recombinant polypeptide SEQ ID NO: 21; human vitronectin positions 1-55, 270-373, 374-379, C274S (protein)
chain: MDQESCKGRCTEGFNVDKKCQCDELCSYYQSCCTDYTAECKPQVTRGDVFTMPEDESQEESEGSSLSAVFEHFAMMQRDSWEDIFELLFWGRTSAGTRQPQFISRDWHGVPGQVDAAMAGRIYISGMAPRPSLAKKQRFRHRNRKGYRSQRGHSRGRNQNSRRPSR
modifications: Synthetic peptide RCP-8
notes: human vitronectin positions 1-55, 270-373, 374-379, C274S
For B2, in data set [1], the Aggregation entry is “A (The formation of particles having a particle size of about 100 nm was observed.)”.

B3: RCP-6: recombinant polypeptide SEQ ID NO: 19; human vitronectin positions 1-55, 270-459, C274S, C411S, C453S (protein)
chain: MDQESCKGRCTEGFNVDKKCQCDELCSYYQSCCTDYTAECKPQVTRGDVFTMPEDESQEESEGSSLSAVFEHFAMMQRDSWEDIFELLFWGRTSAGTRQPQFISRDWHGVPGQVDAAMAGRIYISGMAPRPSLAKKQRFRHRNRKGYRSQRGHSRGRNQNSRRPSRATWLSLFSSEESNLGANNYDDYRMDWLVPATSEPIQSVFFFSGDKYYRVNLRTRRVDTVDPPYPRSIAQYWLGSPAPGHL
modifications: Synthetic peptide RCP-6
notes: human vitronectin positions 1-55, 270-459, C274S, C411S, C453S
Consider B3, for which the Aggregation entry in data set [1] is listed as “A (The formation of particles having a particle size of about 100 nm was observed.)”.

B4: RCP-7: recombinant polypeptide SEQ ID NO: 20; human vitronectin positions 1-55, 270-373, C274S (protein)
chain: MDQESCKGRCTEGFNVDKKCQCDELCSYYQSCCTDYTAECKPQVTRGDVFTMPEDESQEESEGSSLSAVFEHFAMMQRDSWEDIFELLFWGRTSAGTRQPQFISRDWHGVPGQVDAAMAGRIYISGMAPRPSLAKKQRFRHRNRKGYRSQRGHSRGRNQN
modifications: Synthetic peptide RCP-7
notes: human vitronectin positions 1-55, 270-373, C274S
For B4, the Aggregation result in data set [1] is recorded as “A (The formation of particles having a particle size of about 100 nm was observed.)”.

B5: RCP-17: recombinant polypeptide SEQ ID NO: 39; human vitronectin positions 1-55, 270-277, 295-341, 342-373, C274S (protein)
chain: MDQESCKGRCTEGFNVDKKCQCDELCSYYQSCCTDYTAECKPQVTRGDVFTMPEDESQEESEGSEDIFELLFWGRTSAGTRQPQFISRDWHGVPGQVDAAMAGRIYISGMAPRPSLAKKQRFRHRNRKGYRSQRGHSRGRNQN
modifications: Synthetic peptide RCP-17
notes: human vitronectin positions 1-55, 270-277, 295-341, 342-373, C274S
Turning to B5, the Aggregation result in data set [1] is listed as “A (The formation of particles having a particle size of about 100 nm was observed.)”.
